{
  "source": "paper PMC6222646",
  "about": "“HIV-1 Integrase-Targeted Short Peptides Derived from a Viral Protein R Sequence”",
  "binders": {"B1": {"name": "21T/21B duplex (HIV-1 viral DNA end substrate) (dsDNA)", "DNA 1": "GTGTGGAAAATCTCTAGCAGT", "DNA 2": "ACTGCTAGAGATTTTCCACAC"}},
  "key": {"[1]": {"target": "Vpr-derived peptide 1a, Vpr(69-75) (HIV-1, UniProt Q73369)", "sequence (Q73369 whole entry, looked up)": "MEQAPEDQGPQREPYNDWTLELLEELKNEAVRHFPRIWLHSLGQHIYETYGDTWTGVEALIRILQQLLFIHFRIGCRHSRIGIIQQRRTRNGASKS", "test": "fluorescence anisotropy; 7.5 mM MgCl2; peptide up to 37 µM, no IN; IN-activity buffer: 50 mM MOPS pH 7.2, 7.5 mM MgCl2, 14 mM 2-mercaptoethanol; 10 nM DNA, +/- 400 nM IN; 5 min room temperature preincubation, anisotropy read every 30 s for 30 min", "settings": "label: AlexaFluor 488 at 5' end of 21T; blunt"}, "[2]": {"target": "HIV-1 integrase (IN) (HIV-1 (strain ), UniProt P12497 1148-1435)", "test": "fluorescence anisotropy; IN-activity buffer: 50 mM MOPS pH 7.2, 7.5 mM MgCl2, 14 mM 2-mercaptoethanol; 10 nM DNA, +/- 400 nM IN; 5 min room temperature preincubation, anisotropy read every 30 s for 30 min", "settings": "protein: recombinant; tags: His6 or FLAG constructs described; chain copies: 4; label: AlexaFluor 488 at 5' end of 21T; blunt"}},
  "data": [
    {"binder": "B1", "values": [
      {"measurement": "binding result", "setting": "[1]", "value": "no binding"},
      {"measurement": "binding result", "setting": "[2]", "value": "binds"}
    ]}
  ]
}
